The target in assay [1] is CD47抗原 (北京义翘神州, 货号12283-H08H) (UniProt Q08722). As to the kind of experiment: ELISA of induced culture supernatants on CD47 antigen (clone screening). On the technique in general: In an ELISA, binding on a coated surface is turned into a signal by an enzyme label.
Another assay addresses Human CD47/Biotinylated (human, UniProt Q08722 19-139, limits assumed, biotinylated (site not stated)). As to the kind of experiment: BLI-type kinetics, biotinylated human CD47 captured on SA probes, antibody at 73.5-588.2 nM.
For assay [2], the target named is CD47 on HL-60 cells (细胞膜表面表达的CD47抗原) (UniProt Q08722). In words: flow cytometry, 20 μg/ml nanobody on HL-60 cells, anti-His staining. A general note: A flow cytometer gives signals particle by particle.

Chain of Human CD47/Biotinylated (Q08722 19-139 limits assumed): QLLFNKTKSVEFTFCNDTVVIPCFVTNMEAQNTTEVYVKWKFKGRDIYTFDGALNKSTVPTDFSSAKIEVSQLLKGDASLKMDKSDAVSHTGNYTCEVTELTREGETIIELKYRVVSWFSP

B1: CD47单域抗体 SEQ ID NO: 3 (VHH)
VHH: HVQLEESGGGLVQPGGSLRLSCKASGLTFASYSMRWYRQAPGQERELVARLSSSGVPIEYVDSVKGRFTASRDDAKSTLYLQMNSLKPEDTAMYYCWIANYWGQGTQVTVSS
notes: His-tagged sdAb from pSJF2 in E. coli (Ni purification, anti-His detection); also called CD47纳米抗体
As a reminder, the Kd is the concentration at which binding is half-saturated. Higher therefore signals a looser complex. Regarding B1, in assay [1], the OD值 over negative control (fold) was above 5 fold. Also, in the assay with Human CD47/Biotinylated, the Kd is below 1 nM. Moreover, the 结合率 in assay [2] was above 99%.

B2: CD47单域抗体 SEQ ID NO: 6 (VHH)
VHH: QVKLEESGGGLVQPGGSLRLSCAASGLTFSSYSMRWYRQAPGQERELVARLTSSGEPIEYADSVKGRFTASRDNAKSTVYLQMNSLKPEDTAMYYCWIANYWGQGTQVTVSS
notes: as for B1
With B2, the OD值 over negative control (fold) in assay [1] is above 5 fold. For the same molecule, in the assay with Human CD47/Biotinylated, the equilibrium dissociation constant (Kd) was below 1 nM. The same molecule had a 结合率 in assay [2] above 99%.

B3: CD47单域抗体 SEQ ID NO: 10 (VHH)
VHH: GVKLVESGGGLVQPGGSLTLSCVASGFDFNSAHMRWYRQGPGKEREMVASISTTGGVTIYEDSVKGRFTISRDNADNTAYLRMNSLKPEDTAVYYCRAYGFGIDYWGQGTQVTVSS
notes: as for B1
B3 showed an OD值 over negative control (fold) in assay [1] above 5 fold. The Kd with Human CD47/Biotinylated is below 1 nM. In addition, the 结合率 in assay [2] is above 99%.

B4: CD47单域抗体 SEQ ID NO: 2 (VHH)
VHH: QVKLEESGGGLVQPGESLRLSCVASGFAFSSALMRWYRQAPGKERELVASITTAGGITGYADSVKGRFTISRDNAENTLYLQMNSLKPEDTAVYYCRAYGFQLDNWGQGTQVTVSS
notes: as for B1
B4: in assay [1], the OD值 over negative control (fold) is above 5 fold. The same molecule had a Kd in the assay with Human CD47/Biotinylated below 1 nM. The molecule further showed a 结合率 in assay [2] above 99%.

B5: CD47单域抗体 SEQ ID NO: 5 (VHH)
VHH: GVQLVESGGGLVQPGESLRLSCVASGFAFSSALMRWYRQAPGKERELVASVTTTGGITGYADSVKGRFTISRDNAENTLYLRMNSLKPEDTAVYYCRAYGFGLDSWGQGTQVTVSS
notes: as for B1
As to B5, the OD值 over negative control (fold) in assay [1] is above 5 fold. The same molecule gave a Kd with Human CD47/Biotinylated below 1 nM. The molecule further registered a 结合率 in assay [2] above 99%.

B6: CD47单域抗体 SEQ ID NO: 9 (VHH)
VHH: AVKLVESGGGLVQPGGSLRLSCAASGFTVSNNNLRWYRQAPGKERELVAMITSAGNTNYADAVKGRSTISRDNAKNTLYLEMYRLKPEDTAVYYCWGAAHWGRGTQVTVSS
notes: as for B1
On to B6, for which the OD值 over negative control (fold) in assay [1] is above 5 fold. The Kd with Human CD47/Biotinylated is below 1 nM. The same molecule came in with a 结合率 in assay [2] above 99%.

B7: CD47单域抗体 SEQ ID NO: 1 (VHH)
VHH: DVKLVESGGGLVQPGGSLRLSCAASGFTVSSYSMRWYRQVPGKERELIARITSTGQPIEYGESVKGRFTISRDNAKNTLYLEMNALKPEDTAVYYCWGAGYWGQGTQVTVSS
notes: Expressed from pSJF2 in E. coli, purified on Ni column and detected with anti-His antibody, so it carried a His tag; also called CD47纳米抗体
In the case of B7, in assay [1], the OD值 over negative control (fold) is above 5 fold. Besides, the Kd with Human CD47/Biotinylated is below 1 nM. In addition, the 结合率 in assay [2] is above 99%.

B8: CD47单域抗体 SEQ ID NO: 8 (VHH)
VHH: DVQLEESGGGLVQPGGSLRLSCAASGFTVSSYSMRWYRQAPGKERELVARITSTGEPIEYVESVKGRFTISRDNALNTLNLEMNDLKPEDTAVYYCWGAGYWGQGTQVTVSS
notes: as for B1
Regarding B8, in assay [1], the OD值 over negative control (fold) was above 5 fold. In the assay with Human CD47/Biotinylated, this molecule showed a Kd below 1 nM. In assay [2], this molecule gave a 结合率 above 99%.

B9: CD47单域抗体 SEQ ID NO: 4 (VHH)
VHH: DVQLVESGGGSVQPGGSLTLSCAASGFTVSNYSMRWYRQAPGKERELIARITSTGVPIEYADSVKGRFTISRDNAKNTLYLEMNGLKPEDTAVYYCWGAAYWGQGTQVTVSS
notes: as for B1
The molecule B9 came in with an OD值 over negative control (fold) in assay [1] above 5 fold. Besides, in the assay with Human CD47/Biotinylated, the Kd is below 1 nM. This molecule registered a 结合率 in assay [2] above 99%.

B10: CD47单域抗体 SEQ ID NO: 7 (VHH)
VHH: QVKLEESGGGLVQPGESLRLSCVASGFTFSDAHMRWYRQAPGKEREMVASISTTGSITIYADSVKGRFTISRDNDEKTVYLRMNSLKPEDTAAYYCRAYGFQIDSWGQGTQVTVSS
notes: as for B1
B10: in assay [1], the OD值 over negative control (fold) was above 5 fold. The same molecule had an equilibrium dissociation constant (Kd) in the assay with Human CD47/Biotinylated below 1 nM. This molecule also registered a 结合率 in assay [2] above 99%.

The values above are taken from patent publication CN110981959A (SHENZHEN PREGENE BIOPHARMACEUTICAL CO LTD, dated 2020).
